Assay: label from the status in PepcDB records
In the case of “MPTVKSRLVLYFPGFDPLDAAAHHLRYQRAAALAGKTWDVNYAVGPRESRPAGEAFTVEASAGNWSTRSDIVVYDHNDVISQLRDASVWRQIWLGFKAGAGIVSEGGAARYLRHAWRFGLFFIFPFLLMLAGGALAAGIALSPWLFSLPLWLLVVSIPAAALFFVKAFLPFAERFHTLHLYADWRFALAVGRNEPIARDWIEERAALVVTALEEPSDEVLVVSHSMGASLALAVIGRVLELKPDALDGRKLSFATLGGAALQCAFLSSAERLRESIGAIARHPDVTWFDIQCLTDPIHLYRCNTVALTGHKDAPQPKIVPIRFKHSLSPERYKKNKRNFLRMHRQYVLGPDRRSGYDFTLLTAGPLPAASFADLESQSPPAL”, the protein production is reported as “failed”.
For “MPVAATNSETAMQQVLDNLGSLPSATGAAELDLIFLRGIMESPIVRSLAKAHERLEETKLEAVRDNNLELVQEILRDLAQLAEQSSTAAELAHILQEPHFQSLLETHDSVASKTYETPPPSPGLDPTFSNQPVPPDAVRMVGIRKTAGEHLGVTFRVEGGELVIARILHGGMVAQQGLLHVGDIIKEVNGQPVGSDPRALQELLRNASGSVILKILPSYQEPHLPRQVFVKCHFDYDPARDSLIPCKEAGLRFNAGDLLQIVNQDDANWWQACHVEGGSAGLIPSQLLEEKRKAFVKRDLELTPNSGTLCGSLSGKKKKRMMYLTTKNAEFDRHELLIYEEVARMPPFRRKTLVLIGAQGVGRRSLKNKLIMWDPDRYGTTVPYTSRRPKDSEREGQGYSFVSRGEMEADVRAGRYLEHGEYEGNLYGTRIDSIRGVVAAGKVCVLDVNPQAVKVLRTAEFVPYVVFIEAPDFETLRAMNRAALESGISTKQLTEADLRRTVEESSRIQRGYGHYFDLCLVNSNLERTFRELQTAMEKLRTEPQWVPVSWVY”, the protein production was “not failed”.
In the case of “MPVILCPAAEESSGLMMKSAETASLTVSHNELQAMAYTDPLTGLGNRNRMRDKVLQISAERASDPAPFTIGIANLDSFKPINDLFGSSAGDEILCQVAHRLRACIPDGALVTRHDGDEFAFVLPLIFERASAEKFGQMIREVLSAPYDLGDRNVRLSASFGFAIYPFAGEDCEELLKSAETALYRSKRRGRGQITVYSREIAQEMKRATQLEQALRNAIISDAIDVHFQPIVSLANNQVVGFEALARWNDPDLGFVSPGVFVPLAEERGFIDALSEALLRKAAEAALSWPRELFLSFNLSSAQLMDPGTSGSILSILGRVGFDPHRLELEITETAVMGSADTAHRIIADLRAAGVRISLDDFGTGQSSLGRLRDFIFDKIKIDRAFVSRINSDRASEHIIKAILSLCEGLELEVVAEGIEDYAEAVKLRTLGCGMGQGYHFGRPADGIATLRFLHENYYDMAPAERVSA”, the protein production is reported as “failed”.
For “MPVKLAQALANPLFPALDSALRSGRHIGLDELDNHAFLMDFQEYLEEFYARYNVELIRAPEGFFYLRPRSTTLIPRSVLSELDMMVGKILCYLYLSPERLANEGIFTQQELYDELLTLADEAKLLKLVNNRSTGSDVDRQKLQEKVRSSLNRLRRLGMVWFMGHDSSKFRITESVFRFGADVRAGDDPREAQRRLIRDGEAMPIENHLQLNDETEENQPDSGEEE”, the protein production was “failed”.
In the case of “MPVLATSLVSLKVEEPYLPPRNWESLPSQSGRFLPPTRSSASSSSSSSFVSESSLVRLALNALQGVESSLISIEQLSSAFCSEPADRTFHKIPSLWHRLSSTDALGQILRDIGCFGSLVFLLHKFVDHFTRLNLDVESAVEGQGSCKIGENEEVNNKSCYTLVNQAFAIAVRRVLEGYISGLDTLCASIELRRSSNIVDGSDHGSSRLGSLTNVVHPKITLLEVFLHTRELRTQIEALANICDLYDIALSYCASPWECLITEATTRFHGFYRGSDLLTYLYSQLQVADPTHSAMLKFLFLKTCEPYCEFIRSWMFKAELNDPHKEFIVECRSESTSFSWNKPGISPLKSVRERGGLVPCFLNGFLEPIVRAGQQLQVITKLLELCNLPASGHKNYTDLLPCWTYFSTTSPGYPSPITFSKLHIEVMIKKRDDYYRMMQEKLGDFSEKFEVFPGQVPGAISLPISYGDGDKNSIYFTLDESLLIPSTMAIDLTRDQSGSDSDDQNTEDRWFSEIDASCSSECSSTRDSLEASEVGLLDSQSTLVGPPPNYLSALRFSVASNGNCNQNLVQHSDSGYIDNNLVRQGEKADINHQWVDTKPEESTGVCEDDKFRGPLLIKSWPLGGLPRNPFCVDKKSADDDSEDPRNYSGARMEQRHLMNTDERKLFLNNISTSGSCSKHERRHDVLENCLSSKLDLMKDTKVNYPNDVLSMNPLVRCDFLRKHGNTNKRNQGKSLPWFDFSAVDDPSKTCITRIPVRVPIDFQKESHSPQTDRKSHRHANQERFDVEDPKVSSSQLSSGIKGCAEEKKSNAFGGGRWESMLRRSNNPETSAFSDRRQDSSGTFELPLDFVIDKCLLQEIHLQYPSRYFHLLEIYIFSKLAIKLLEEGFGLQEHLLALRRYHFMELADWADVFVVSLWHHKWLVTEADKRIAEIQGFLESSIQRSSCERDICKDRIFLYKRQGTMHIPPSTIGVRSFDFLRLGYRVDWPISIILTCDALTAYADVFSFLVQVKLAAYVLTDVWCSLKVKDMMDLESVHMAYLSEALRIGIQSTDRVPNDSWTKTLGINTSQNFDKELKELHKCHLRSPKHGKYGLSRFWDYLNFNLYYSDILHDSNIFSLIP”, the protein production is reported as “failed”.
With “MPVSQQCIKACGFMHPRRLQWLTFSTSPAHPVRLFLAHLYSFASRFVMTTPNPDPLHGVTLEQILRALIEHYEWSGLAERIDIRCFKSDPSIKSSLTFLRKTPWAREKVEALYVKLHRGKGW” the protein production was “failed”.
With “MPVYLYYGEDTYSLNQKIDHLVNQNVHAEWKDFNYIKLSGNEKNIAAKVFTEVMTLPFGEGNKIVHTDSDHLIGSLSNEDNNQELENQLSRIPASNILLITSNKKPDSRRTVVKTILKYAQQEEFPLVPCWDKKGIVNLIGKYAAIHQVKFTPDVTDYLVEAIGNNTARVDSEFAKLAVYASEKIISLEEIKQLVSNHNTDYQKLTIAMLRNHSNLAIAQVDKLLDSNEHPLKIVATLTSFFRTWLITKAGVEARLSDIKIAEIAEVKNPKRLYYLKDEIKFVGVQKLKNSLTLLLQLETELKSGTNNLISRIIEICMI” the protein production was “failed”.
In the case of “MPWKNTESRYSTMTIALHWLMLVLLAVVYACIEFRGIFPKGSGGRTLIVEAHFMLGLTVFALVWLRLFARAQGVAPKILPTPPHWQRLLSTLMHWALYLFMIAMPILGWLTTSAKGHQVMFYGLDLPLLLAENKPLAKQLQGWHELLGTVGYWLIGLHALAGLYHHYVMRDNTLQRMWRKRGQA”, the protein production is reported as “failed”.
For “MPWLLPREIAPLHQKALDRYLGSLTERLSDPNVDRNALVREELARLLYGRPYEELLEANPLAAMGLDPEGITFEAEYYAATDLEKFRRVKPLLWFWKVLDLTPLGQSVHSGVAIRRALAPFIFKRVGKNPKFFQNVEFSVGYNLELGDDVVVHRYVFLDDIGGIKIGDRTSLSDYVNVYSHTHHVLASPDVTLKETIIGSGVRITYHATVLAGVRIGDDAMVGTGAVVTKDIPPHAIALGIPARPVRYKVRHDCPYCRKGEPHPSDLVPKLPDRKGNPDYPDFLPPGFGTREAGS”, the protein production was “failed”.
For “MPYAIDFGTTNTVIARWNEATRQGNLIDLPSLSHPLGDSGPLVPSLLYVENAALGQVAIAREVLDRGRDISTDTRFFKNFKRGIGVAVQGFLPQLDGHTLSLETLGQWYLDKLIRILTEQEGQGPDCLALTVPVDSFESYRHWLSHTCRSWGVEEVRLVDEPTAAALGYGVGDASQILVLDFGGGTVDFSWVQLGDRGQKGRSGFLLKWGGILGGSKAEEKSALAKVLAKAGANLGGSDIDYWISEYFTEAQGLQVSPWIRRLAERLKIALGEAEEATEVYFDDQALESYEFQLRRSDLTEILQQRQFFERLTALWEQVQQTAQRRGLTPANLDAVLVVGGTSQLPMVQDWINAQFPAGKIRNQQPFGAIALGALQIYQGREVQDYLYHSYGVRYWNRRKNSHNWHPIIKNGQTYPMAEPIELTLGASLDNQPSIELIVGELGSSIGATEVYFDGNQLITRVLENQAFTVQPLNDRNGARQIAQLSPPGVPGGDRIKVKFWVDDQRYLRLTVEDLLQQKLLLENQVVAQLRLEHHHHHH”, the protein production was “failed”.
In the case of “MPYINELRNHKFLIILVDLLCILAAYIAAFYIRYQGFPAKNWESFVSLLPWILLIGLFFISVYELYALDRKNTLWDILVKIFVAVTFMAFLTMAASYFFREFALPRSILFIASVFTIVLLATWKYVFLKLTRRNVVGKVLFIGDDDNTERMISKIKHPMLKGTSIKQVHPNIPMDKINHYMRHADYIILCTSIQKEKKSMIIYHAMECNKLVYVVPTLYELLLQRSSVTPLDDTMLMSVKPFGLTWDQAFIKRAFDVVTSAFTLICTSPLLPISCNFN”, the protein production is reported as “failed”.
For “MPYLYLLLAIVSEVIGSAFLKSSDGFSKLYPTITTIISYLISFYFLSKTMQHLPLNIAYASWSGLGLVLTTIVSVLIFKEQINLISIISIILIIFGVVLLNTFGSSH”, the protein production was “failed”.
For “MPYMTTDAKEVSGKSFDYIVVGGGTAGCSLAATLSEKYSVLVIERGGSPFGDPLVEERKYFGYSLLNTDEYSSVAQSFTSVDGIENYRGRVLGGSSAINGGFYSRASDEFVKKAGWDKGLVQESYKWVESKVVFMPELTQWQSVVQFGFLEAGFYPYNGYSLEHTQGTKIGGSIYDQCGKRHTSADLLGFGKPNCITVLLNTTVKSIIFDSSNKTRAVGVRFMESDGNSSKSYKVHVEQHRGEVILAAGALGSPQILLLSGIGPENHLKDFDIPVIVNLKEVGRKMSDNPAISLLVDRFSQNRTLEPPQVAAIAEGYKFILESEVLPTDITTTRISIAAKIAFPKSKGRLKLNSTNPRENPSVKFNYLENKADLDACLEMVLHLQHVARSETVTFFLGTQAHDKLVAGDEELKSFCIKNVRTYYHYHGGCVVGSVVDEEYKVNGVKRLRVVDGSTFEESPGTNPMATVLMLGRYQGIKILKEREEQEDTFLSPQGSPQPQP”, the protein production was “failed”.
For “MPYVPTPKPVVDRMLELADVDETDVLYDLGSGDGRIVIRAARTHGARGVGIEIDPDLVKKARKNAKEAGVADLVEFRQGDLFEADISEATVVTLYLLPSVNQKLRPILFEQLSPGTPVVSHDFDMGRWAPDRTVDLEGDTVYRWTIPEEIPEDLDELEHHHHHH”, the protein production was “not failed”.
In the case of “MQAGNPMSLQSMLPYVTPPVVGAVIGYVTNDIAIRMLFRPLKPWRVFGIRVPLTPGVIPAGRHEFAATIGRMVGTHLVTGTDVARALGKDSFRRELQEAVSGKLDTLLDRDLGTVGSLLPEGFESWLRDGVDLAARRAGETVAGYLQGEDFRRELSLFLRDLEERVLPRELERILAGETGDAVRAGAGRALAALLQSRGVSRAVAGLVDDKLDELLASERPLRELLPPELVELATAQAREAMPVILGRVAEFVRSPEIRDTFEAKLREGVQQYLANLKGTLGFMAGFISVEKLNSYFPGLVGSVTDEVVRWLGEETTHRRVAAMVDQGLGRILDRPLAATVEQLPYRRVALLRRSIRRGALGVVRRPETAGFLLALAERELVRLAADPSRPILERLAPEDDPSRLREGLVGWLTDRLRDPGIRATLERIVAGRVEEWLFNRPLGRLSARISAEVRRDLDQLIYRQVADLLEREAPPLIDALDVARMVEEKINTLDILAVEGLLLSIMQKHFLYINLFGALLGFVMGSFNVLLMGLGR”, the protein production is reported as “failed”.
With “MQAPRLRVGIFDDGSSTVNMAEKLDSVGHYVTVLHAPEDIRDFELVVIDAHGVEGYVEKLSAFARRGQMFLHTSLTHGITVMDPLETSGGIVMSAHPIGQDRWVASALDELGETIVGLLVGELGGSIVEIADDKRAQLAAALTYAGFLSTLQRDASYFLDEFLGDPDVTSDIVMDSAQQFQALPSLDEVIAQYDSINNPGRQRLFRDLARRQAEISRAQDIELWAIQKEDR” the protein production was “not failed”.
